US20240190989A1 (BEIGENE SWITZERLAND, published 2024)
Where two headings read alike, the source gives them in different places.

How the values were obtained:
[1] = biological target: T1, full-length human CD137 on cells (Hut78/huCD137, HEK293 transfectants, JK-NFKB-CD137) (human, UniProt Q07011 24-255); test: cell-based or functional assay
human CD137 ECD-mIgG2a [2] = biological target: T2, human CD137 ECD-mIgG2a (human); test: SPR, A-CEAxCD137 format
T2 construct: ECD 24-183 of huCD137 fused to mouse IgG2a Fc; also called huCD137-mIgG2a; huCD137
T2 sequence (chain, as listed by the source limits assumed): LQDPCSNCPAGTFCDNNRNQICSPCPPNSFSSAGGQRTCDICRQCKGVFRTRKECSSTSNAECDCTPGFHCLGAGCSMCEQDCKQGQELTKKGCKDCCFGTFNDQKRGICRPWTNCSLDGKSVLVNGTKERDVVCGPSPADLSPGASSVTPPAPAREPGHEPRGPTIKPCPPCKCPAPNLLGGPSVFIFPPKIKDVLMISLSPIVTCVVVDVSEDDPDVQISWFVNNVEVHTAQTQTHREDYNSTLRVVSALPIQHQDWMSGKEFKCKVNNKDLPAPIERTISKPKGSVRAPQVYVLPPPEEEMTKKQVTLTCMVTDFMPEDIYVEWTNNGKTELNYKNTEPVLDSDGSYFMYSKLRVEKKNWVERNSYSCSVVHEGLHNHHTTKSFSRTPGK

[3] = biological target: T1, full-length human CD137 on cells …; test: flow cytometry on Hut78/huCD137 cells
human CD137 ECD-mIgG2a [4] = biological target: T2, human CD137 ECD-mIgG2a; test: SPR, human CD137 ECD-mIgG2a
[5] = biological target: T3, full-length human CEA on cells (MKN45, LOVO, L929/huCEA, CT26/CEA, CT26-OS8-CEA) (human, UniProt P06731 35-685); test: flow cytometry on CT26/CEA cells
T3 construct: also called CEACAM5; native CEA
T3 sequence: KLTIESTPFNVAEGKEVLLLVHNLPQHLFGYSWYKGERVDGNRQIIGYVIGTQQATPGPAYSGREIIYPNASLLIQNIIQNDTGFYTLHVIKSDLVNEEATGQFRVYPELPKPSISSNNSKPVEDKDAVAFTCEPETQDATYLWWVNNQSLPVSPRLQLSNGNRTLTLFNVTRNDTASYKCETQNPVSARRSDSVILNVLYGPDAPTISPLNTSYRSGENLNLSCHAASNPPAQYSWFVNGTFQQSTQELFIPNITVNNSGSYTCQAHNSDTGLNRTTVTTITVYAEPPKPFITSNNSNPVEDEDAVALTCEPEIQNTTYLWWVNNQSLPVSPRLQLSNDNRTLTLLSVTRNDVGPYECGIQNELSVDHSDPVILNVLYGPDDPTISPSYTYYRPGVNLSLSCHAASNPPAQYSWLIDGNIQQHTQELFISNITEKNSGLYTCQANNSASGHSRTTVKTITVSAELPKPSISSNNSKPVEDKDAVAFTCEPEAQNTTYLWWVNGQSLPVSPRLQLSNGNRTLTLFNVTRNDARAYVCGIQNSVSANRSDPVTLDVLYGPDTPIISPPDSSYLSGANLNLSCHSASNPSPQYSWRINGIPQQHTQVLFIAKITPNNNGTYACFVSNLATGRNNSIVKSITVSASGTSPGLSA

[6] = biological target: T1, full-length human CD137 on cells …; test: flow cytometry on Hut78/huCD137 cells; remark: listed apart in the source
[7] = biological target: T4, soluble human CEA, amino acids 1-687 of huCEA with C-terminal 6xHis tag (human, UniProt P06731 35-687); test: flow cytometry on MKN45 cells, 2 µg/ml antibody, competitor 20 µg/ml recombinant soluble CEA in solution
T4 construct: also called sCEA; soluble huCEA
T4 sequence: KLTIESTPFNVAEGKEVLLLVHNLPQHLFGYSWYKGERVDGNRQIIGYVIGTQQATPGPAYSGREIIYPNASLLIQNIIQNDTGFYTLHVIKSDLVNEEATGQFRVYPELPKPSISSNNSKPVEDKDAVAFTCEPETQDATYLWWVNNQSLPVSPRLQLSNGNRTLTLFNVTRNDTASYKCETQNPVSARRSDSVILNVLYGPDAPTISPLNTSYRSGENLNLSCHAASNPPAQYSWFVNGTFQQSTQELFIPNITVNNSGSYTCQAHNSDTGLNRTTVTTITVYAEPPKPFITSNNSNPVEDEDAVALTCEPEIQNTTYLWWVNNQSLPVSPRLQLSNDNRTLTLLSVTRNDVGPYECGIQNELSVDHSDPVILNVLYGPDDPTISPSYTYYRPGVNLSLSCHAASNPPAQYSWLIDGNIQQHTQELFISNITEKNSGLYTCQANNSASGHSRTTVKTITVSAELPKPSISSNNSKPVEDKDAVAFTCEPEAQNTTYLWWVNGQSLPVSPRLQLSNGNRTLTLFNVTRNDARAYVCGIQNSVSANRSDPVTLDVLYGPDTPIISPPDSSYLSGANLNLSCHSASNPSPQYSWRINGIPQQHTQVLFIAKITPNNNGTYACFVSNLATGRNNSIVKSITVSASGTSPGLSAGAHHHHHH

human CD137 ECD-mIgG2a [8] = biological target: T2, human CD137 ECD-mIgG2a; test: SPR, Fc fusion VH
human CD137 ECD-mIgG2a [9] = biological target: T2, human CD137 ECD-mIgG2a; test: SPR, Fc-fusion VH captured
[10] = biological target: T1, full-length human CD137 on cells …; test: flow cytometry on Hut78/huCD137 cells; remark: listed apart in the source

T1 sequence (Q07011 24-255 limits assumed): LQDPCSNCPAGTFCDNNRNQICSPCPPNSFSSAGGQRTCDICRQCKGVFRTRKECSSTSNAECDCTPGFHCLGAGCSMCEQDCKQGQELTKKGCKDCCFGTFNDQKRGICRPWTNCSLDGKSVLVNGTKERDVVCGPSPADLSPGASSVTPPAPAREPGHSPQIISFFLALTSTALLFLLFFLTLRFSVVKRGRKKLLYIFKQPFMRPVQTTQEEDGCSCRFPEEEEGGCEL

B1: Format A BGA-3386 (bispecific antibody, human IgG1, kappa)
heavy: QVQLVQSGAEVKKPGASVKVSCKASGYIFTSYYLHWVRQAPGQGLEWIGYINPQTGKTSYAQKFQGRVTMTRDTSTSTVYMELSSLRSEDTAVYYCAREYGNYNYPLDYWGQGTLVTVSSASTKGPSVFPLAPSSKSTSGGTAALGCLVKDYFPEPVTVSWNSGALTSGVHTFPAVLQSSGLYSLSSVVTVPSSSLGTQTYICNVNHKPSNTKVDKKVEPKSCDKTHTCPPCPAPPAAGPSVFLFPPKPKDTLMISRTPEVTCVVVDVSHEDPEVKFNWYVDGVEVHNAKTKPREEQYNSTYRVVSVLTVLHQDWLNGKEYKCKVSNKALAAPIEKTISKAKGQPREPQVYTLPPSREEMTKNQVSLTCLVKGFYPSDIAVEWESNGQPENNYKTTPPVLDSDGSFFLYSKLTVDKSRWQQGNVFSCSVMHEALHNHYTQKSLSLSPGKGGGGSEVQLLESGGGLVQPGGSLRLSCAASGFTVSAEDVGWVRQAPGKGLEWVSAILDKGGSTYYAESVKGRFTISRDNAKNTLYLQMSSLRAEDTAVYYCARIVYHAGGGVTFDTWGQGTLVTVSS
light: DIQMTQSPSSLSASVGDRVTITCRASENQYGYLAWYQQKPGKVPKLLIYNYKNLVEGVPSRFSGSGSGTDFTLTISSLQPEDVATYYCQHHLGTPYTFGQGTKVEIKRTVAAPSVFIFPPSDEQLKSGTASVVCLLNNFYPREAKVQWKVDNALQSGNSQESVTEQDSKDSTYSLSSTLTLSKADYEKHKVYACEVTHQGLSSPVTKSFNRGEC
**Q.** Which “Functions EC50 (PBMC cytokine release)” value [1] does the source give for B1 here?
**A.** 0.0768 µg/mL

**Q.** What about the Kd (human CD137 ECD-mIgG2a [2]) of the same binder?
**A.** 21.4 nM

**Q.** And the EC50 [3]?
**A.** 0.21 µg/mL

B2: A-CD137/CEA (Format A: BGA-4712 VH fused to the C-terminus of the Fc of the anti-CEA antibody) (bispecific antibody, human IgG1, kappa)
heavy: QVQLVQSGAEVKKPGASVKVSCKASGYIFTSYYLHWVRQAPGQGLEWIGYINPQTGKTSYAQKFQGRVTMTRDTSTSTVYMELSSLRSEDTAVYYCAREYGNYNYPLDYWGQGTLVTVSSASTKGPSVFPLAPSSKSTSGGTAALGCLVKDYFPEPVTVSWNSGALTSGVHTFPAVLQSSGLYSLSSVVTVPSSSLGTQTYICNVNHKPSNTKVDKKVEPKSCDKTHTCPPCPAPPAAGPSVFLFPPKPKDTLMISRTPEVTCVVVDVSHEDPEVKFNWYVDGVEVHNAKTKPREEQYNSTYRVVSVLTVLHQDWLNGKEYKCKVSNKALAAPIEKTISKAKGQPREPQVYTLPPSREEMTKNQVSLTCLVKGFYPSDIAVEWESNGQPENNYKTTPPVLDSDGSFFLYSKLTVDKSRWQQGNVFSCSVMHEALHNHYTQKSLSLSPGKGGGGSEVQLLESGGGLVQPGGSLRLSCAASGFMLSAEDVGWVRQAPGKGLEWVSAILDFGGSTYYADSVKGRFTISRDNSKNTLYLQMNSLRAEDTAVYYCARVVYHAGGGVTFDYWGQGTLVTVSS
light: DIQMTQSPSSLSASVGDRVTITCRASENQYGYLAWYQQKPGKVPKLLIYNYKNLVEGVPSRFSGSGSGTDFTLTISSLQPEDVATYYCQHHLGTPYTFGQGTKVEIKRTVAAPSVFIFPPSDEQLKSGTASVVCLLNNFYPREAKVQWKVDNALQSGNSQESVTEQDSKDSTYSLSSTLTLSKADYEKHKVYACEVTHQGLSSPVTKSFNRGEC
notes: Symmetric IgG-like molecule, inert Fc; also called A-CEAxCD137; A-CEA/CD137
**Q.** Which Kd (human CD137 ECD-mIgG2a [4]) does the source give for B2 here?
**A.** 360 nM

**Q.** And the EC50 [5]?
**A.** 0.75 µg/mL

**Q.** What about the EC50 [6] of the same binder?
**A.** 0.57 µg/mL

B3: D-CD137/CEA (Format D: BGA-4712 VH fused to the N-terminus of the heavy chain of the anti-CEA antibody) (bispecific antibody, human IgG1, kappa)
heavy: EVQLLESGGGLVQPGGSLRLSCAASGFMLSAEDVGWVRQAPGKGLEWVSAILDFGGSTYYADSVKGRFTISRDNSKNTLYLQMNSLRAEDTAVYYCARVVYHAGGGVTFDYWGQGTLVTVSSSGGGGSQVQLVQSGAEVKKPGASVKVSCKASGYIFTSYYLHWVRQAPGQGLEWIGYINPQTGKTSYAQKFQGRVTMTRDTSTSTVYMELSSLRSEDTAVYYCAREYGNYNYPLDYWGQGTLVTVSSASTKGPSVFPLAPSSKSTSGGTAALGCLVKDYFPEPVTVSWNSGALTSGVHTFPAVLQSSGLYSLSSVVTVPSSSLGTQTYICNVNHKPSNTKVDKKVEPKSCDKTHTCPPCPAPPAAGPSVFLFPPKPKDTLMISRTPEVTCVVVDVSHEDPEVKFNWYVDGVEVHNAKTKPREEQYNSTYRVVSVLTVLHQDWLNGKEYKCKVSNKALAAPIEKTISKAKGQPREPQVYTLPPSREEMTKNQVSLTCLVKGFYPSDIAVEWESNGQPENNYKTTPPVLDSDGSFFLYSKLTVDKSRWQQGNVFSCSVMHEALHNHYTQKSLSLSPGK
light: DIQMTQSPSSLSASVGDRVTITCRASENQYGYLAWYQQKPGKVPKLLIYNYKNLVEGVPSRFSGSGSGTDFTLTISSLQPEDVATYYCQHHLGTPYTFGQGTKVEIKRTVAAPSVFIFPPSDEQLKSGTASVVCLLNNFYPREAKVQWKVDNALQSGNSQESVTEQDSKDSTYSLSSTLTLSKADYEKHKVYACEVTHQGLSSPVTKSFNRGEC
notes: Symmetric IgG-like molecule, inert Fc; also called D-CEAxCD137
**Q.** B3 was tested. Which Kd (human CD137 ECD-mIgG2a [4]) did it give?
**A.** 78 nM

**Q.** And the EC50 [5]?
**A.** 3.78 µg/mL

**Q.** And the EC50 [6]?
**A.** 2.28 µg/mL

B4: BGA288 (antibody, V domains shown)
VH: EVLLQQSGPELVKPGASVKIFCKASGYTFTDYNIDWVQQSHGKSLEWIGDIGPNYGGTIYNQKFKGKATLTVAKSSSTAYMELRSLTSEDTAVYYCARRGSIPRAVDYWGQGTSVTVSS
VL: DIKMTQSPSSMYASLGERVTITCKASQDIHNYLSWFQQKPGKSPKTLIYRANRLVDGVPSRFSGSGSGQDYSLTISSLEYEDMGIYYCLQYDEFPYTFGGGTKLEIK
**Q.** Does B4 bind [7]?
**A.** binds

B5: BGA190 (antibody, V domains shown)
VH: DVQLVESGGGLVQPGGSRELSCAASGFTFSSFGMHWVRQAPERGLEWVAYISIGSDIIYYADTVKGRFTISRDNPKNTLFLQMTSLRSEDTAVYYCTRRSYRSYWYFDVWGAGTTVTVSS
VL: DIQMTQSPASLSASVGETVTITCRTSENIYSYLAWYQQKQGKSPHLLVYNAKTLAEGVPSRFSGSGSGTQFSLKIISLQPEDFGTYYCQHHFLSPWMFGGGTKLEIK
**Q.** Does B5 bind [7]?
**A.** binds

B6: BGA-4712-M3-mutFc (Fc fusion VH) (Fc fusion)
chain: EVQLLESGGGLVQPGGSLRLSCAASGFTLSAEDVGWVRQAPGKGLEWVSAILDFGGSTYYAESVKGRFTISRDNAKNTLYLQMSSLRAEDTAVYYCARVVYHAGGGVTFDYWGQGTLVTVSSGGGGSDKTHTCPPCPAPPAAGPSVFLFPPKPKDTLMISRTPEVTCVVVDVSHEDPEVKFNWYVDGVEVHNAKTKPREEQYNSTYRVVSVLTVLHQDWLNGKEYKCKVSNKALAAPIEKTISKAKGQPREPQVYTLPPSREEMTKNQVSLTCLVKGFYPSDIAVEWESNGQPENNYKTTPPVLDSDGSFFLYSKLTVDKSRWQQGNVFSCSVMHEALHNHYTQKSLSLSPGK
**Q.** With B6 as the binder, how does the Kd (human CD137 ECD-mIgG2a [8]) read?
**A.** 169 nM

**Q.** And the Kd (human CD137 ECD-mIgG2a [9])?
**A.** 169 nM

**Q.** And the EC50 [10]?
**A.** 2.37 µg/mL

B7: BGA-7556-mutFc (Fc fusion VH) (Fc fusion)
chain: EVQLLESGGGLVQPGGSLRLSCAASGFTLSAEDVGWVRQAPGKGLEWVSAILDFGGSTYYAESVKGRFTISRDNAKNTLYLQMSSLRAEDTAVYYCARVVYHAGGGVTFDYRGQGTQVTVSSGGGGSDKTHTCPPCPAPPAAGPSVFLFPPKPKDTLMISRTPEVTCVVVDVSHEDPEVKFNWYVDGVEVHNAKTKPREEQYNSTYRVVSVLTVLHQDWLNGKEYKCKVSNKALAAPIEKTISKAKGQPREPQVYTLPPSREEMTKNQVSLTCLVKGFYPSDIAVEWESNGQPENNYKTTPPVLDSDGSFFLYSKLTVDKSRWQQGNVFSCSVMHEALHNHYTQKSLSLSPGK
**Q.** What does the source list for B7?
**A.** Kd (human CD137 ECD-mIgG2a [8]): 200 nM; Kd (human CD137 ECD-mIgG2a [9]): 200 nM; EC50 [10]: 5.71 µg/mL
